Earlier results, collected in PMC9038201.

Target: ubiquitin (Homo sapiens) (UniProt P0CG47)

PLpro (from UniProt P0DTD1)
Kd: 120 µM
